No end group written: not given here. TMR = tetramethyl rhodamine dye
T1: Rb^P S534R (human, UniProt P06400 380-788, S534R)
T1 construct: also called variant 23
T1 sequence (looked up): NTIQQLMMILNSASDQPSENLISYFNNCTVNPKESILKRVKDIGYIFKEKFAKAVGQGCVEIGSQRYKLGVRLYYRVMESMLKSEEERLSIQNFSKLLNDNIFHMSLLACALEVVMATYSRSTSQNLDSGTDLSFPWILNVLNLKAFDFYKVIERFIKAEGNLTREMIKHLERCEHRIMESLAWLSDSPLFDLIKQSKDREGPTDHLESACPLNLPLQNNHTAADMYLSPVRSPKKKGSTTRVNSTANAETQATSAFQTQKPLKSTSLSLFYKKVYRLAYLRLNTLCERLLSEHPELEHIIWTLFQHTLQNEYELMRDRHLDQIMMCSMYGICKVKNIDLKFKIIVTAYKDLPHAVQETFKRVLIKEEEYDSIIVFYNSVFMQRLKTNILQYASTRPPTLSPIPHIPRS

T2: Rb^P L550I (human, UniProt P06400 380-788, L550I)
T2 construct: also called variant 27
T2 sequence (looked up): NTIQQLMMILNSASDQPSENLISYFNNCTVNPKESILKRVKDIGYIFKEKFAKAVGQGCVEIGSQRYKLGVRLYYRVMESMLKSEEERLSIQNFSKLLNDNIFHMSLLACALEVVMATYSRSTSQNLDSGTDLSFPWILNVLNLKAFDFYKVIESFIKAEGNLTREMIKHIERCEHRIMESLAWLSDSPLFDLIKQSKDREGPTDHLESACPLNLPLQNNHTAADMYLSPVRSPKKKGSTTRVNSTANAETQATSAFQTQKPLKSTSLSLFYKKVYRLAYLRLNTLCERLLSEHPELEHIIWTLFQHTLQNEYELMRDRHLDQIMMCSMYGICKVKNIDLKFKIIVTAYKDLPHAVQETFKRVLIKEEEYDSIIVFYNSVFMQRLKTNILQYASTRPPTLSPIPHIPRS

T3: Rb^P S612P (human, UniProt P06400 380-788, S612P)
T3 construct: also called variant 39
T3 sequence (looked up): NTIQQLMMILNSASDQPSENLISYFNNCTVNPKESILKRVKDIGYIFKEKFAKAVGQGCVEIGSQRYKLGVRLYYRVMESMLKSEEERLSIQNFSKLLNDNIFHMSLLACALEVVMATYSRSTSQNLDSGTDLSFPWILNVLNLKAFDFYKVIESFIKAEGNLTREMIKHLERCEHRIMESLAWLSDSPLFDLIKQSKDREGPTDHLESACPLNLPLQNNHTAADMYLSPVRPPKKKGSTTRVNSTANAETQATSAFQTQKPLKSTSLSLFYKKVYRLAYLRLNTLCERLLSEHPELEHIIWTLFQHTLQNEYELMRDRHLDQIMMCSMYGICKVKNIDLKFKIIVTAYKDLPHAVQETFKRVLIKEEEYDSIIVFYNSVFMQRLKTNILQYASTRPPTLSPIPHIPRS

T4: Rb^P I679F (human, UniProt P06400 380-788, I679F)
T4 construct: also called variant 57
T4 sequence (looked up): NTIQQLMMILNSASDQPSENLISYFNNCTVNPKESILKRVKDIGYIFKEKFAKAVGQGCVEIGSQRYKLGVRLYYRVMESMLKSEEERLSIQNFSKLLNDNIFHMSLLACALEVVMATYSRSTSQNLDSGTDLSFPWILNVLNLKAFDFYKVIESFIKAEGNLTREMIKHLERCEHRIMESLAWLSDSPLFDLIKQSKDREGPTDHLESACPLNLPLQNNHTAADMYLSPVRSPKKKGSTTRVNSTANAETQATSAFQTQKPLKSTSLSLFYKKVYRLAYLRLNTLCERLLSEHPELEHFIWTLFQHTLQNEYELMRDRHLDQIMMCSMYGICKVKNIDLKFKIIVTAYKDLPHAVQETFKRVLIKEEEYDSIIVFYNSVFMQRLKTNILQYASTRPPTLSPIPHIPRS

T5: Rb^P V754G (human, UniProt P06400 380-788, V754G)
T5 construct: also called variant 73
T5 sequence (looked up): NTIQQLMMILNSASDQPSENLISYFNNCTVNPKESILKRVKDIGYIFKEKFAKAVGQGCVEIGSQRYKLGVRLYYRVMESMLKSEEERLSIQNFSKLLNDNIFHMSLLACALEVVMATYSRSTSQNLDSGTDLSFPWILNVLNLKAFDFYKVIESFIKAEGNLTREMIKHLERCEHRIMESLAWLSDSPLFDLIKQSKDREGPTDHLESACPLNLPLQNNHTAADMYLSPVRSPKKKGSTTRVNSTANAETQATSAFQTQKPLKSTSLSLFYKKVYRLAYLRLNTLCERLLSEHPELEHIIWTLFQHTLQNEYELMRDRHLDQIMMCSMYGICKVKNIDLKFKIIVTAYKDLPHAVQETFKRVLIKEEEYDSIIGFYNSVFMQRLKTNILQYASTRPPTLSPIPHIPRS

B1: TMR-E2F1^TD, peptide of the E2F1 transactivation domain (peptide)
peptide: {TMR}-GEGIRDLFDCDFGDLTPLD
notes: also called E2F^TD; source: synthetic peptide, bought: GenScript
B2: TMR-E7^LxCxE, LxCxE peptide of the E7 oncoprotein from HPV (peptide)
peptide: DLYCYEQLN
modifications: also: TMR label, position not given here
notes: source: synthetic peptide, bought: GenScript

Legend:
Assay in all cases: fluorescence polarisation; 37 °C, after the 25 °C reading ramped over 7 min to 37 °C and 2 min incubation; unlabeled Rb^P against 1.5 nM TMR-E2F1^TD or 7.5 nM TMR-E7^LxCxE; 25 mM Tris pH 8.0, 200 mM NaCl, 1 mM DTT, 0.1% Tween-20; apparent Kd
Details in all cases: both partners purified
Rb^P S534R = target: T1, Rb^P S534R
Rb^P L550I = target: T2, Rb^P L550I
Rb^P S612P = target: T3, Rb^P S612P
Rb^P I679F = target: T4, Rb^P I679F
Rb^P V754G = target: T5, Rb^P V754G

| Binder | Kd (Rb^P S534R) [nM] | Kd (Rb^P L550I) [nM] | Kd (Rb^P S612P) [nM] | Kd (Rb^P I679F) [nM] | Kd (Rb^P V754G) [nM] |
| --- | --- | --- | --- | --- | --- |
| B1 | 18000 | 80 | 49 | 33 | 34 |
| B2 | 11 | 7 | 17 | 20 | 15 |

— publication PMC11931385, “Structural and functional analysis of cancer-associated missense variants in the retinoblastoma protein pocket domain” (The Journal of Biological Chemistry, 2025)
